Experimental data: patent US6569841B1, “Ion exchange tumor targeting (IETT)” (MAP Medical Technologies OY, priority 1998, dated 2003)

Test system: bladder tumor tissue (epidermal growth factor positive superficial transitional cell bladder carcinoma)
Assay: Radioactive uptake in bladder tumor vs normal bladder tissue after instillation in the bladder of patients (ttn ratio)
Settings: 200 mL of 0.25 μg/mL in saline instilled in the bladder for 30 minutes, washed out, mean values
Protocol: Nine patients having epidermal growth factor positive superficial transitional cell bladder carcinoma were studied.
200 mL of the polymers, of the concentration 0.25 μg/mL in saline, were instilled through an urethral catether and kept in the bladder for 30 minutes and were then carefully washed out with approximately 400 mL saline. The patients were then operated on and samples were taken from normal bladder tissue and bladder tumor tissue, respectively. The samples were weighed and counted in gamma counter and the radioactive uptake was calculated as cpm/g tissue. The target to non-target (ttn) ratio was calculated.

Tc-99m-lysine dextran
radioactive uptake, ttn (target to non-target ratio, tumor vs normal bladder tissue, cpm/g): highest target to non-target ratio
